According to patent US20020058267A1 (Pfizer, published 2002):

Assays:
[1] = target: forty-residue β-amyloid peptide (human Aβ), aged (aggregated) unless said otherwise (human) (UniProt P05067); experiment: cell-based or functional assay
[2] = target: T1, human BAP42 fused to the Gal4 DNA-binding domain (BAP^BD; expression plasmid pEK162) (yeast; human, UniProt P04386 1-147; P05067 672-713); experiment: yeast 2-hybrid
T1 construct: The screening strain also expressed free BAP42 (pEK149); also called BAP fusion protein; human BAP fusion protein
Experimental: These fusion proteins were assayed with the BAP fusion protein and responses compared to those of strains expressing the larger BBP1Δtm protein. The BBP1ΔC protein induced a weak Y2H response (compare BBP1ΔC to vector, FIG. 4), but the BBP1ΔN protein, containing the first tm domain and adjacent amino-proximal sequences produced a response only slightly weaker than that observed with BBP1Δtm.
Bioassays: Strains were grown overnight in 2 ml SC medium lacking leucine and tryptophan to a density of approximately 7×10⁷ cells per ml. Cells were counted and 10-fold serial dilutions made from […] in sterile water. These samples were spotted in 5 μl aliquots on SC medium lacking leucine, tryptophan and histidine and containing 25 mM 3-amino-triazole. Plates were incubated at 30° C. for 2 to 3 days. Positive protein/protein interactions were identified by increased prototrophic growth compared to control strains expressing the Gal4 DNA-binding domain fusion protein plus an irrelevant transcriptional activation domain fusion protein (or simply containing the pACT vector without inserted sequences). This assay method was highly reproducible and provided for the detection of subtle inductions of growth mediated by the specific interaction between target proteins. […]

[3] = target: T2, BBP1 intracellular loop (pOZ339), Gal4 DNA-binding domain fusion (yeast; human, UniProt P04386 1-147); experiment: yeast 2-hybrid, two independently derived clones of each strain against vector
T2 construct: also called BBP1 intracellular region; predicted intracellular domain of BBP1
Source text: BBP1ΔC was made by using the pACT2-specific oligo #6 with antisense oligo #9 (5′-CTCGAG TCAAGATATGGGCTTGAAAAAAC). After TA cloning, isolation of the EcoRI-XhoI fragment and cloning into pACT2, the resultant plasmid, pEK219, expressed BBP1 from residue 68 to 175. Sequences encoding the BBP1 intracellular loop were amplified using oligonucleotides #10 (5′-CCTTCC ATGGAAGTGGCAGTCGCATTGTCT) plus #11 (5′-[…] TCAAAACCCTACAGTGCAAAAC). This product, containing BBP1 codons 185 to 217, was digested with NcoI+XhoI and cloned into pAS2 cleaved with NcoI +SalI to generate pOZ339. Construction of all Gα protein expression plasmids utilized the BamHI site near the center of each rat cDNA sequence as the site of fusion in pACT2 (Kang, Y. -S., Kane, J., Kurjan, J., Stadel, J., and Tipper, D. (1990) Mol Cell Biol 10, 2582-2590). Sense primers annealed to sequences 5′ of the BamHI site; antisense primers annealed to sequences 3′ of the stop codon and included a SalI restriction site. Primers were: […]
Structural analysis of BBP1 indicated it contained a structural motif known to be a Gα protein activating sequence in the related G protein-coupled receptors. […] The predicted intracellular domain of BBP1 was expressed as a Gal4 DNA-binding domain with portions of rat Gαs, Gαo, or Gαl2 expressed as Gal4 activation domain fusion proteins. […]

Question: With “BBP1 expressed in transfected cells from the BBP1 expression plasmid pBBP (pOZ363) (receptor)” as the molecule, how does the % apoptotic nuclei, Ntera2 neurons, 10 µM aged Aβ for 48 hrs [1] read?
Answer: The % apoptotic nuclei, Ntera2 neurons, 10 µM aged Aβ for 48 hrs was 22.3%.

Question: What about the % apoptotic nuclei, Ntera2 stem cells, 10 µM aged Aβ for 48 hrs [1] of the same molecule?
Answer: The % apoptotic nuclei, Ntera2 stem cells, 10 µM aged Aβ for 48 hrs was 12.3%.

Question: What about the cell viability after aggregated Aβ peptide for 48 hrs (loss of total cells) (% of total cells) [1] of the same molecule?
Answer: Its cell viability after aggregated Aβ peptide for 48 hrs (loss of total cells) (% of total cells) is 22.

B1: BBP1ΔN (pEK216), Gal4 activation domain fusion (other, not shown: small tags and cut ends)
chain: PKINDATQEPVNCTNYTAHVSCFPAPNITCKDSSGNETHFTGNEVGFFKPISCRNVNGYSYKVAVALSLFLGWLGADRF
notes: Encodes the first tm domain plus the preceding 52 amino acids; also called BBP1?N (so in the source); ?N construct
Question: Does B1 bind [2]?
Answer: Result: binds

B2: rat Gαs C-terminal region (pOZ345), Gal4 activation domain fusion (other, UniProt P63095 235-394, looked up, not shown: large carriers)
chain: IQCFNDVTAIIFVVASSSYNMVIREDNQTNRLQEALNLFKSIWNNRWLRTISVILFLNKQDLLAEKVLAGKSKIEDYFPEFARYTTPEDATPEPGEDPRVTRAKYFIRDEFLRISTASGDGRHYCYPHFTCAVDTENIRRVFNDCRDIIQRMHLRQYELL
notes: range 235-394; also called Gas
Question: Does B2 bind [3]?
Answer: Result: binds

B3: rat Gαi2 C-terminal region (pOZ348), Gal4 activation domain fusion (other, UniProt P04897 213-355, looked up, not shown: large carriers)
chain: IHCFEGVTAIIFCVALSAYDLVLAEDEEMNRMHESMKLFDSICNNKWFTDTSIILFLNKKDLFEEKITQSPLTICFPEYTGANKYDEAASYIQSKFEDLNKRKDTKEIYTHFTCATDTKNVQFVFDAVTDVIIKNNLKDCGLF
notes: range 213-355; also called Gai2
Question: Does B3 bind [3]?
Answer: Result: binds
